From the DeepSol protein solubility set

Assay: soluble on expression in E. coli; label from the status in PepcDB or PDB records

Sequence | soluble on expression in E. coli
MGSRENLYFQGLEHHHHHHHMKNVKTLIAAAILSSMSFASFAAVEVQSTPEGQQKVGTISANAGTNLGSLEEQLAQKADEMGAKSFRITSVTGPNTLHGTAVIYK | soluble
MTEKSIDLSVDIAGLRLSNPVIAASGTFGFGREFVDYVDLNKIGGISVKGLTLEKRQGNRPPRIAETPAGILNSVGLQNPGVRAFIENEIPFLRKYNTKIIANIAGNTIEDYCKMAELLSDADIDAIELNVSCPNVKKGCVAFGNSPAGISEITSKVKKYCKKPLIVKLTPNVTDIKEIAVAAEAAGADALSLINTILGMAIDIHRKRPILANNVGGLSGPAVKPIAVRMVYEVCSVVKIPVIGMGGISSGEDAVEFMLAGASAVMVGTANFINPAACIDVVEGIKNYLKMYNHGSVYEIIGKLQLN | not soluble
MGSDKIHHHHHHMNFDFDLPAKALFRAMPICRENTRFNIDGVLIDPDPNGGAWLVATDGKGMLVQYDPDTKVPEKCVVKVSAAWLTETRFDYDMSLIGDLNDIHWCDTRLEFSKDTMTAMSSDFDIAHCLAEAGPDVFCQIRYNPISFPDWRKALDTSANTSELARPVERQTALDTGYLTDLIGWSRGFQVNPAPAGHARLISFVGEPNTFAVLMPMVADATDPLPPLLERAGRADLIQGPQRAAE | not soluble
GPGYQDPKGRLYGTIGIQKRFYVSIDKIPEHVINAFVATEDRNFWHHFGIDPVAIVRAAIVNYRAGRIVQGGSTITQQLAKNLFLTRERTLERKIKEALLAIKIERTFDKKKIMELYLNQIYLGSGAYGVEAAAQVYFGKHVWELSLDEAALLAALPKAPAKYNPFYHPERALQRRNLVLKRMLEEGYITPEQYEEAVNK | soluble
MGSDKIHHHHHHMEHTYRLVISCPDRVGIVAKVSNFLSTYNGWITEASHHSDTQAGWFFMRHEIKAESIPFGLDQFRAAFEPIAREFNMNWHIADSARPKRVILMCSKESHCLADLLHRWHSKELNCEIVAVISNHDDLRRMVEWHEIPYHHVPVSKENKAEAFAHIDELFQQYETDVVVLARYMQILPAELCGKYSGKVINIHHSFLPSFAGARPYHQAYSRGVKLIGATCHYVTQDLDEGPIIEQDVIRISHSDSIEDMVRLGKDVEKNVLARGLRSHIEDRVITYENKTVVFD | not soluble
MGSSHHHHHHSSGLVPRGSHMFKPKKKLGQCFLIDKNFVNKAVESANLTKDDVVLEIGLGKGILTEELAKNAKKVYVIEIDKSLEPYANKLKELYNNIEIIWGDALKVDLNKLDFNKVVANLPYQISSPITFKLIKRGFDLAVLMYQYEFAKRMVAAAGTKDYGRLSVAVQSRADVEIVAKVPPSAFYPKPKVYSAIVKIKPNKGKYHIENENFFDDFLRAIFQHRNKSVRKALIDSSKELNYNKDEMKKILEDFLNTNSEIKNLINEKVFKLSVKDIVNLSNEFYRFLQNRGRL | soluble
MGSDKIHHHHHHMDSSIDLSLAYADSGVGEVLDQLDCELIGLKPVKTRIREIAALLLVDRARKDLDLASTMPSLHMSFTGRPGTGKTTVAIRISQILHRLGYLRKGHVVTVTRDDLVGQYVGHTAPKTREMIKRAQGGVLFIDEAYYLYKPGNERDYGAEAIEILLQDMESRRGDFVVIFAGYKDKMDAFYQSNPGLSSRVAHHIDFPDYSNRELLAIAQLFLVQQNYYFGDEAEGIFEDYIERRRQLPFFANARSIRNALDRTRLRQANRLFARMGEPLSRDELMTIEPADILASRVFQGEVEGRHPTQPLMESSE | not soluble
MTEDALNRIADALERMAPAPLRAPDFAVAPAFVWHVAPERLEPVRDVNRVDLDLLVGINRARDTLLDNTRRFAAGHGANNALLWGARGMGKSSLVKAVHGALQPEFPNLKLVELQREDLPSVARLLNHLRAAPERFILFCDDLSFSHDDQHYKSLKAVLDGGIEGRPENVVFYATSNRRHLMPRDMIENERSSAINPSEAVEEKVSLSDRFGLWLGFHPCDQDEYLAMIDGYCAAYGVSVAPDTLRAEAIEWQATRGARSGRVAWQFFTDLAGRQGIALRLEHHHHHH | soluble
MSLKRQLGKDVVQAARERIHILFDEFEHIYVSFSGGKDSGVLLHLVIEEARKRNRLPVDVLIVDLEAQYQHTIHFVERMVNKKEVNAFWVCLPLSLRNSVSQFQPKWICWDPDKKEDWIRALPLHASVINEEEYFSFYSFGMEFETFVSAFGEWYSEKKQCPCACLVAIRADESLNRYKTIKNQRKKRLKQYGWTTKASDVFYKAYLIYDWHVTDIWIANGRFNWDYNHVYDLMHKAGLSLAQQRLCQPFGDDQRKGLWLYQILEPQTWQKLVVRVEGCNFGARYSKKQGHILGYYKFDLPEGYTYRSYSKYLLNSMPPHLADHYRKRLFKFLNWWRKNGKEQGILSIPDFADKKLEAKKKVPSWRRICKVLIKNDYWCRGLSFGQSKKLTEHYIDLYEGYFRKEGHHHHHH | soluble
MDLADLMEVENGDHSINQKHVQITFFSKDEEIPQIPDAVFDVPTGAECDDMNLLLNKTIEANDGAWKERRFEFLVGETFLRTSLAEFIEEYEVETETILKVECVIGIEAPKPLHDIQAPDWVSSVQIANGHIFSTTYGGDIVIVDRKGKETKLAVNSANRLLKCISIVKAPSKKNQLDGTEFVVGGENQLLTLYAIEKGALVEKLILRGHERAVECVSVNSDSTRAISGSVDTNLKIWNLDASDEATTYEKEEEEESAKKRRKKETKTKVPMVTIGGHRDKVSAVEWCPWNSGHAFSCSWDHTIVEWDLELAGEISRIKGPKSFTSIDLHPKSDLLISSCTDAIPRLYDPKNRDGSMVKQSFIGHQNGWVEAVKWNPLDTNQFVSVSTDKTAKMWDVRSSKSSLFDIHGHDDRILCATWNEGLIATGSADCTIKIFETA | not soluble
MSLKQLDMTPQPDLSQKTGTGPVLTRLPVWRPALPPCNHACPAGENIQAWLSLAEAGRFEAAWQTLIEENPLPAIHGRVCYHPCESACNRAQVDDAVSIHAIERFLGDEALARGWQPAPPAPASGKKVLVIGAGPSGLSCAWHLNRLGHQVEIREAGPLAGGMLRFGIPAYRLPRDVLDREVARIVAAGVTLTLNHKVEDVLRERDEGGFDAVFMAIGAHLAKRVDIPAREAGKILDAVSFLEQASLAEEQGLPPPKLGRRVAIYGGGNTAMDAARTARRLGVEEAMIIYRRDREHMPAHAFEADEAEEEGIKINWLRSIRQLDNTNIEVEVMALDAEGKPVPTGKFETLEADSLILALGQEVDLSVLESIPGVRVNKEGVVQVGENLMTDVPGLFAGGDMVPSERTVTIATGHGKKAARHMDAWLRGRHYQKMVSYPLVGPEQLQLWFQTHAPASSQPVKPAWARDDFGEIIGGLDETAARYEAARCYSCGNCFECDGCYGSCPEQAIEKLGPGKGYQVDATRCTGCGACHDQCPCHAIELRQPEESEGHHHHHH | soluble
MNGDVQSVIRGYLERAQVAKTMSDAGRWNEAGDLLRQLMTDVKSCKISASNRDEHDARNTFLRALEANLKLVQQNVRDEDDLHEAMTRQSGSPEPPADPDVWSKPSPPLPSSSKFGATKKGVGAAGPRPREISKSTSSMSTNPADVKPANPTQGILPQNSAGDSFDASAYDAYIVQAVRGTMATNTENTMSLDDIIGMHDVKQVLHEAVTLPLLVPEFFQGLRSPWKAMVLAGPPGTGKTLIARAIASESSSTFFTVSSTDLSSKWRGDSEKIVRLLFELARFYAPSIIFIDEIDTLGGQRGNSGEHEASRRVKSEFLVQMDGSQNKFDSRRVFVLAATNIPWELDEALRRRFEKRIFIPLPDIDARKKLIEKSMEGTPKSDEINYDDLAARTEGFSGADVVSLCRTAAINVLRRYFRYDTKSLRGGELTAAMESLKAELVRNIDFEAALQAVSPSAGPDTMLKCKEWCDSFGAM | not soluble
MSGLSMRNPERRIETNPFDVDAWNLLLREHQSRPIDQERDFYESLVKQFPNSGRYWKAYIEHELRSKNFENVEKLFSRCLVSVLNIDLWKCYIHYVFETKGQRDQYREEMAKAYDFALEKVGMDVQAYSIFTEYIAFLKKVPAVGQYAENQRITAVRKIYQKALATPMHNLELIWNDYCTYEKAINITLAEKLIAERGKEYQNARRVEKDLQQMTRGLNRQAVSVPPKGTATEFKQVELWKNLIAWEKTNPLQTEEYGQHARRVVYTYEQSLLCLGYYPDIWYEAAMFLQEASHTLDEKGDVKMAQVLKLETISLYERAITGLMKESKLLYFAYADFQEEHKQFEAVKNIYDRLLGIEHINPTLTYVQLMRFIRRSEGPNNARLVFKRAREDKRTGYQVFVAAALLEYNCMKDKEVAIRVFKLGLKKYENEPEFGLAYADFLSNLNEDNNTRVVFERILTSSKLPADKSIRIWDRFLDFESCVGDLASILKVEKRRKTAYEEAQKDQTMNHSMLVIDRYKFMDLMPCSGEQLKLIGYNALKGTESIAGPSFVGSKNVPTHGPQAASAIMGGAGGHADVARYGFPRPDISQMIPFKPRVNCTASFHPVPGGVFPPPQSVAHLMSLLPPPTCFIGPFINVELLCNMINNMQLPNVSYPKSEDNMLGPMLEQDVKKDMYQLLATTSDPSAVVRSSALSDLKRKRGDSDDEEDYSHLGAVIGSLGSRDAYKRRMNKKNE | not soluble
MCRHCHFLSAIAPVSGTNKSQPGNKWDMVLLVPFDGSALSKAALTRAMEFADYRDEDITALSVIPDDAAYAREHGWLDADEAFTVEAVADRMREQAESVAPAASFRYEVPEDVSSMASTTTNITRTIREVAHEEEASIVFIGSENAGRVSTPVCSVGSPVSEDPEYDVHIVRHP | not soluble
MGSDKIHHHHHHMKQIKHTFEEKKKMGGKASMWNLWHGCHKWSEGCRHCYVYRTDGKYGKDSSVVTKTEKFGLPLQKKKNGEYKIPSGNLVYTCFTSDFLIEDVDEWRAEAWEMMRIRQDLHFMFITKRIDRLQQCLPPDWGDGYDNVTICCTMENQDRVDYRLPIYKESPIKHKIIICEPLLSQIDFRGELEGWVEQVVAGGESGKEARVCNYDWVLDIRRQCVEAHVGFWFKQTGSYLLKDGHEYKVARQFQHSQARKAELNYTPEK | not soluble
MGHHHHHHSHMEFLTFLKSDYTHANLVDKALQLLKERILKGDTLAYFLRGQLYFEEGWYEEALEQFEEIKEKDHQATYQLGVMYYDGLGTTLDAEKGVDYMKKILDSPCPKARHLKFAAAYNLGRAYYEGKGVKRSNEEAERLWLIAADNGNPKASVKAQSMLGLYYSTKEPKELEKAFYWHSEACGNGNLESQGALGLMYLYGQGIRQDTEAALQCLREAAERGNVYAQGNLVEYYYKMKFFTKCVAFSKRIADYDEVHDIPMIAQVTDCLPEFIGRGMAMASFYHARCLQLGLGITRDETTAKHYYSKACRLNPALADELHSLLIRQRI | not soluble
MRKFLSKTHHHTNPLWRVYRLVKFSKVFKNVIIIEFSKFIPSMVLKRHIYKQLLNINIGNQSSIAYKVMLDIFYPELITIGSNSVIGYNVTILTHEALVDEFRYGPVTIGSNTLIGANATILPGITIGDNVKVAAGTVVSKDIPDNGFAYGNPMYIKMIRR | not soluble
GSMDQRQKLQHWIHSCLRKADKNKDNKMNFKELKDFLKELNIQVDDGYARKIFRECDHSQTDSLEDEEIETFYKMLTQRAEIDRAFEEAAGSAETLSVERLVTFLQHQQREEEAGPALALSLIERYEPSETAKAQRQMTKDGFLMYLLSADGNAFSLAHRRVYQDMDQPLSHYLVSSSHNTYLLEDQLTGPSSTEAYIRALCKGCRCLELDCWDGPNQEPIIYHGYTFTSKILFCDVLRAIRDYAFKASPYPVILSLENHCSLEQQRVMARHLRAILGPILLDQPLDGVTTSLPSPEQLKGKILLKGKKLGGLLPAGGENGSEATDVSDEVEAAEMEDEAVRSQVQHKPKEDKLKLVPELSDMIIYCKSVHFGGFSSPGTSGQAFYEMASFSESRALRLLQESGNGFVRHNVSCLSRIYPAGWRTDSSNYSPVEMWNGGCQIVALNFQTPGPEMDVYLGCFQDNGGCGYVLKPAFLRDPNTTFNSRALTQGPWWRPERLRVRIISGQQLPKVNKNKNSIVDPKVIVEIHGVGRDTGSRQTAVITNNGFNPRWDMEFEFEVTVPDLALVRFMVEDYDSSSKNDFIGQSTIPWNSLKQGYRHVHLLSKNGDQHPSATLFVKISIQD | soluble
